Data set [1] addresses GST-hUpf11019-1118 (GST fused to the carboxyl-terminal region of hUpf1, amino acids 1019-1118) (UniProt Q92900).
For data set [2], the system named is GST fusion protein containing the first 70 amino acids of p53 (GST-p531-70).
Data set [3] addresses PHAS-I/4E-BP1 protein (UniProt Q13541).
Data set [4] deals with GST-p531-70(S15A).

Chain of GST fusion protein containing the first 70 amino acids of p53 (GST-p531-70) (chain, as listed by the source): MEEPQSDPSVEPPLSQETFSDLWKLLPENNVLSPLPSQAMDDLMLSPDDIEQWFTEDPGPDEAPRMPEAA
Chain of GST-hUpf11019-1118 (GST fused to the carboxyl-terminal region of hUpf1, amino acids 1019-1118) (Q92900 1019-1118): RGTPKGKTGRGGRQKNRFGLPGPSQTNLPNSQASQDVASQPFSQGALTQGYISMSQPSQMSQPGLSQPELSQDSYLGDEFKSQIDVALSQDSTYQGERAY
Chain of PHAS-I/4E-BP1 protein (Q13541 whole entry): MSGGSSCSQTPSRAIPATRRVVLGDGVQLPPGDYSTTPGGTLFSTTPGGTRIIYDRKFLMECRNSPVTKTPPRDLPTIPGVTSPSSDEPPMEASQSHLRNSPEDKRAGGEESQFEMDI

HA-tagged wild-type ATM (HA-ATMWT): the “phosphorylation of substrate in immune complex kinase assay” value in data set [1] was “phosphorylated by both ATM and ATX”. Moreover, the “specific kinase activity in immune complex kinase assay” value in data set [2] was “the specific kinase activity of HA-ATXWT towards GST-p531-70 was significantly higher than that of HA-ATM”.

As for HA-tagged wild-type ATX (HA-ATXWT), the “phosphorylation of substrate in immune complex kinase assay” value is “poorly phosphorylated” in data set [3]; “phosphorylated by both ATM and ATX, with the latter protein kinase showing the higher specific catalytic activity” in data set [1]; “nearly abolished” in data set [4]. The “phosphorylation of substrate in immune complex kinase assay, compared with GST-hUpf11019-1118” value in data set [2] is “GST-p531-70 was more avidly phosphorylated by ATX than was the GST-hUpf11019-1118 substrate”. Besides, the “specific kinase activity in immune complex kinase assay (ratio of 32P incorporation into substrate to level of HA-tagged kinase)” value in data set [2] is “the specific kinase activity of ATXWT was approximately 3.5-fold higher than that of ATMWT”.

The values are drawn from patent US20040248244.
